Laboratory results reported in patent US20210087291A1 (Hoffmann-La Roche, published 2021).

What was measured:
[1] = biological target: T1, huFc fused dimeric human Tim3-ECD (human, UniProt Q8TDQ0 22-202); test: SPR Biacore, bivalent Tim3
T1 construct: also called huTim3Fc; bivalent Tim3
Procedure: (§1) Therefore, an anti-mouse IgG was immobilized by amine coupling to the surface of a (Biacore) CM5 sensor chip. The samples were then captured and hu/cy Tim3-ECD was bound to them. The sensor chip surface was regenerated after each analysis cycle. The equilibrium constant KD was finally gained by fitting the data to a 1:1 langmuir interaction model.
(§2) Flow cell temperature was set to 25° C. and sample compartment temperature to 12° C. The system was primed with running buffer. The samples were injected for 30 seconds with a concentration of 200 μg/ml and bound to the spots 1 and 5 of each flow cell, allowing the measurement of eight samples in parallel. Then a complete set of different (monomeric cyno, monomeric human and huFc fused dimeric human Tim3-ECD) concentrations (s. Table X) was injected over each sample for 240 s followed by a dissociation time of 30/1800 s (s. Table 1). Each analysis cycle (sample capture, spot 1 and 5—Tim3 ECD injection) was then regenerated with a 30 seconds long injection of Glycine-HCl pH 1.7. The flow rate was set to 30 μl/min for the whole run. Finally, the double referenced data was fitted to a 1:1 langmuir interaction model with the Biacore B4000 Evaluation Software.

[2] = biological target: T2, cynomolgus TIM-3 on isolated cyno CD14+ monocytes (cynomolgus); test: flow cytometry, cyno CD14+ monocytes cyno3
T2 construct: whole, on cells
Source text: (§3) CD14+ Monocytes were isolated from cynomolgus monkey anticoagulated peripheral blood (Covance) by density gradient centrifugation using Ficoll-Paque (GE Healthcare) (see General Protocols in the User Manuals or visit www.miltenyibiotec.com/protocols) and subsequent positive selection via NHP CD14 MicroBeads. First the CD14+ cells are magnetically labeled with CD14 MicroBeads. Then the cell suspension is loaded onto a MACS® Column which is placed in the magnetic field of a MACS Separator. The magnetically labeled CD14+ cells are retained in the column. The unlabeled cells run through, this cell fraction is depleted of CD14+ cells. After removal of the column from the magnetic field, the magnetically retained CD14+ cells can be eluted as the positively selected cell fraction. After centrifugation at 200×g for 10 min at room temperature the monocytes were harvested and used directly in binding assay or resuspended in freezing medium (10% DMSO, 90% FCS) at 1.0E+07 cells/ml and stored in liquid nitrogen.
(§4) 1×10⁵ CD14+ isolated cyno monocytes (50 μl/well) were put into 98 well-v bottom MTP in fresh culture medium and incubated with Redimune® NF Liquid for 15 min at RT to block unspecific binding. Than 50 μl/well of Alexa488 labeled anti-TIM3 (10 μg/ml in cell culture medium) were added and incubated for 1 h at 4° C. After washing and centrifugation MFI signals of stained cells were analyzed by BD Biosciences FACSCanto flow cytometer.

human TIM-3 on cells [3] = biological target: T3, human TIM-3 on cells (human, UniProt Q8TDQ0 22-301); test: cell ELISA, CHO-K1 expressing human Tim3
T3 construct: also called CHO-Tim3; rec CHOK1 cells expressing huTIM-3
Procedure: Then the reaction was stopped by addition of 25 μl/well 1N HCL-solution.

human TIM-3 on cells [4] = biological target: T3, human TIM-3 on cells; test: cell-based or functional assay
monomeric human Tim3-ECD [5] = biological target: T4, monomeric human Tim3-ECD (human, UniProt Q8TDQ0 22-202); test: SPR Biacore, monovalent Tim3
T4 construct: also called huTim3
Procedure: as §1, §2

human TIM-3 on cells [6] = biological target: T3, human TIM-3 on cells; test: cell-based or functional assay; remark: listed apart in the source
[7] = biological target: T2, cynomolgus TIM-3 on isolated cyno CD14+ …; test: flow cytometry, cyno CD14+ monocytes cyno2
Source text: as §3, §4

monomeric human Tim3-ECD [8] = biological target: T4, monomeric human Tim3-ECD; test: SPR Biacore, antibody captured by anti-mouse IgG
Procedure: as §1, §2

[9] = biological target: T1, huFc fused dimeric human Tim3-ECD; test: SPR Biacore, antibody captured by anti-mouse IgG
Procedure: as §1, §2

human TIM-3 on cells [10] = biological target: T3, human TIM-3 on cells; test: flow cytometry, human CD14+ monocytes donor3
Source text: (§5) CD14+ Monocytes were isolated from anticoagulated peripheral blood of healthy donors by density gradient centrifugation using Ficoll-Paque (GE Healthcare) (see General Protocols in the User Manuals or visit www.miltenyibiotec.com/protocols) and subsequent positive selection via CD14 MicroBeads. First the CD14+ cells are magnetically labeled with CD14 MicroBeads. Then the cell suspension is loaded onto a MACS® Column which is placed in the magnetic field of a MACS Separator. The magnetically labeled CD14+ cells are retained in the column. The unlabeled cells run through, this cell fraction is depleted of CD14+ cells. After removal of the column from the magnetic field, the magnetically retained CD14+ cells can be eluted as the positively selected cell fraction. After centrifugation at 200×g for 10 min at room temperature the monocytes were harvested and used directly in binding assay or resuspended in freezing medium (10% DMSO, 90% FCS) at 1.0E+07 cells/ml and stored in liquid nitrogen.
(§6) 1×10⁵ CD14+ isolated human monocytes (50 μl/well) were put into 98 well-v bottom MTP in fresh culture medium and incubated with Redimune® NF Liquid for 15 min at RT to block unspecific binding. […] After washing and centrifugation MFI signals of stained cells were analyzed by BD Biosciences FACSCanto flow cytometer.

human TIM-3 on cells [11] = biological target: T3, human TIM-3 on cells; test: flow cytometry, human CD14+ monocytes donor1
Tim3-ECD-His-Biotin = biological target: T5, Tim3-ECD-His-Biotin (human, UniProt Q8TDQ0 22-202); test: ELISA on Tim3-ECD-His-Biotin
T5 construct: also called human Tim3 (ELISA); Biochem Human
Procedure: After washing (3×90 μl/well with PBST-buffer) 25 μl aTim3 samples or diluted (1:2 steps) reference antibody aTim3 F38-2E2 (Biolegend) was added and incubated 1 h at RT. After washing (3×90 μl/well with PBST-buffer) 25 μl/well sheep-anti-mouse-POD (GE NA9310V) was added in 1:9000 dilution and incubated at RT for 1 h while shaking at 400 rpm rotation. After washing (4×90 μl/well with PBST-buffer) 25 μl/well TMB substrate (Calbiochem, #CL07) was added and incubated until OD 1.5-2.5. Then the reaction was stopped by addition of 25 μl/well 1N HCL-solution.

[12] = biological target: T2, cynomolgus TIM-3 on isolated cyno CD14+ …; test: flow cytometry, cyno CD14+ monocytes cyno1
human TIM-3 on cells [13] = biological target: T3, human TIM-3 on cells; test: flow cytometry, human CD14+ monocytes donor2
Source text: as §5, §6

[14] = biological target: human FolR2 on transiently transfected HEK cells (human, UniProt P14207 17-230); test: flow cytometry on HEK cells transiently transfected with human FolR2, anti-human secondary antibody; concentration not given
Sequence of human FolR2 on transiently transfected HEK cells (P14207 17-230 limits assumed): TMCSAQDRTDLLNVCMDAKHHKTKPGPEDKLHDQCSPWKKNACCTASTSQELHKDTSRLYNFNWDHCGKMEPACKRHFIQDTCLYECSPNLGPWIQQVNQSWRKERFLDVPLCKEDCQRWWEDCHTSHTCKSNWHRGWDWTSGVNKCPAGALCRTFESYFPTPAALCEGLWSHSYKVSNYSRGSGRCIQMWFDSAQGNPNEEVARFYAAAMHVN

[15] = biological target: T6, murine FolR1 ECD-AcTev-Fcknob-Avitag + Fc hole, biotinylated monomeric Fc fusion (murine, UniProt P0DOX5 223-449 = IgG part); test: SPR, IgG single injection
T6 construct: also called muFolR1; murine FolR1-Fc

[16] = biological target: T7, cynomolgus FolR1 ECD-AcTev-Fcknob-Avi tag + Fc hole, biotinylated monomeric Fc fusion (cynomolgus, UniProt P0DOX5 223-449 = IgG part); test: SPR, apparent KD, bivalent binding (avidity)
T7 construct: also called cyFolR1; cyno FolR1-Fc
Procedure: (§7) Binding of FolR1 binders as IgG or in the T-cell bispecific format to different recombinant folate receptors (human FolR1, 2 and 3, murine FolR1 and cynomolgus FolR1; all as Fc fusions) was assessed by surface plasmon resonance (SPR).
Recombinant biotinylated monomeric Fc fusions of human, cynomolgus and murine Folate Receptor 1 (FolR1-Fc) were directly coupled on a SA chip using the standard coupling instruction (Biacore, Freiburg/Germany). The immobilization level was about 300-400 RU. The anti-FolR1 IgGs or T cell bispecifics were passed at a concentration range from 2.1 to 500 nM with a flow of 30 μL/minutes through the flow cells over 180 seconds. The dissociation was monitored for 600 seconds. Bulk refractive index differences were corrected for by subtracting the response obtained on reference flow cell immobilized with recombinant biotinylated IL2 receptor Fc fusion. […] The binding curves resulting from the bivalent binding of the IgGs or T cell bispecifics were approximated to a 1:1 Langmuir binding and fitted with that model (which is not correct, but gives an idea of the avidity). The apparent avidity constants for the interactions were derived from the rate constants of the fitting using the Bia Evaluation software (GE Healthcare).

[17] = biological target: T7, cynomolgus FolR1 ECD-AcTev-Fcknob-Avi …; test: SPR, monovalent, antibody captured by anti-Fab
Procedure: as §7
For affinity measurement, direct coupling of around 6000-7000 resonance units (RU) of the anti-human Fab specific antibody (Fab capture kit, GE Healthcare) was performed on a CM5 chip at pH5.0 using the standard amine coupling kit (GE Healthcare). Anti-FolR1 IgGs or T cell bispecifics were captured at 20 nM with a flow rate of 10 μl/min for 20 or 40 sec, the reference flow cell was left without capture. […] The dissociation phase was monitored for 240 sand triggered by switching from the sample solution to HBS-EP. The chip surface was regenerated after every cycle using a double injection of 60 sec 10 mM Glycine-HCl pH 2.1 or pH1.5. Bulk refractive index differences were corrected for by subtracting the response obtained on the reference flow cell 1. The affinity constants for the interactions were derived from the rate constants by fitting to a 1:1 Langmuir binding using the Bia Evaluation software (GE Healthcare).

monomeric cyno Tim3-ECD = biological target: T8, monomeric cyno Tim3-ECD (cynomolgus, UniProt A0A2K5U3G7 22-195); test: SPR Biacore, antibody captured by anti-mouse IgG
T8 construct: extracellular domain; also called cyTim3
T8 sequence: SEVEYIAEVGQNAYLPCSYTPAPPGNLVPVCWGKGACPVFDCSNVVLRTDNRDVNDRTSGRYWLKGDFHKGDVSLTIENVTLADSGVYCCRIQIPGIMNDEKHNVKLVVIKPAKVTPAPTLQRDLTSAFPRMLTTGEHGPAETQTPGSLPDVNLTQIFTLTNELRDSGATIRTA
Procedure: as §1, §2

B1: Tim3_0021 (antibody, V domains shown)
VH: QVQLQQSGPQLVRPGASVQISCKASGYSFTSYLLHWLKQRPGQGLEWIGMIDPSDSETRLNQKFKDKATLTVDKSSSTAYMQLSSPTSEDSAVYYCARDGYYAWYYFDCWGQGTTLTVSS
VL: DIVLTQSPATLSVTPGDRVSLSCRASQSIGNNLHWYQQKSHESPRLLIKYASHSISGIPSKFSGTGSGTDFTLSFNSVETEDFGMYFCQQSNSWPLTFGAGTKLELK
- Kd [1]: 4.1 nM
- MFI [2]: 399 MFI
- EC50 (human TIM-3 on cells [3]): 0.073 µg/mL
- IFN-gamma release in MLR at 1 µg/ml, % of IL-2 control (human TIM-3 on cells [4]): 101%
- IFN-gamma release in MLR at 10 µg/ml, % of IL-2 control (human TIM-3 on cells [4]): 108%
- IFN-gamma release in MLR at 40 µg/ml, % of IL-2 control (human TIM-3 on cells [4]): 112%
- Kd (monomeric human Tim3-ECD [5]): 204 nM
- internalization at 30 Min, RPMI-8226 (human TIM-3 on cells [6]): 70%
- internalization at 60 Min, RPMI-8226 (human TIM-3 on cells [6]): 75%
- internalization at 120 Min, RPMI-8226 (human TIM-3 on cells [6]): 74%
- internalization at 240 Min, RPMI-8226 (human TIM-3 on cells [6]): 78%
- internalization at 26 h, RPMI-8226 (human TIM-3 on cells [6]): 77%
- MFI [7]: 473 MFI
- Kd (monomeric human Tim3-ECD [8]): 204 nM
- Kd [9]: 4.07 nM
- specific binding MFI (human TIM-3 on cells [10]): 1200 MFI
- specific binding MFI (human TIM-3 on cells [11]): 1130 MFI
- EC50 (Tim3-ECD-His-Biotin): 0.047 µg/mL
- MFI [12]: 348 MFI
- specific binding MFI (human TIM-3 on cells [13]): 951 MFI

B2: Tim3_0033 (antibody, V domains shown)
VH: QGQMHQSGAELVKPGSSVKLSCKTSGFTFSSSFISWLKQKPGQSLEWIAWIYAATGSTSYNQKFTNKAQLTVDTSSSAAYMQFSSLTTEDSAIYYCARHAGYPHYYAMDYWGQGTSVTVSS
VL: DIQMTQSPASLSASVGETVTITCRASENIFSNLAWYQQKQGKSPQLLVYSATNLGDGVPSRFSGSGSGTQFSLKINSLQPEDFGNYYCQHFYKIPFTFGTGTKLEIK
- Kd [1]: 3.1 nM
- MFI [2]: 83 MFI
- EC50 (human TIM-3 on cells [3]): 3.71 µg/mL
- IFN-gamma release in MLR at 1 µg/ml, % of IL-2 control (human TIM-3 on cells [4]): 0%
- IFN-gamma release in MLR at 10 µg/ml, % of IL-2 control (human TIM-3 on cells [4]): 30%
- IFN-gamma release in MLR at 40 µg/ml, % of IL-2 control (human TIM-3 on cells [4]): 35%
- internalization at 30 Min, RPMI-8226 (human TIM-3 on cells [6]): 75%
- internalization at 60 Min, RPMI-8226 (human TIM-3 on cells [6]): 81%
- internalization at 120 Min, RPMI-8226 (human TIM-3 on cells [6]): 82%
- internalization at 240 Min, RPMI-8226 (human TIM-3 on cells [6]): 82%
- internalization at 26 h, RPMI-8226 (human TIM-3 on cells [6]): 80%
- MFI [7]: 81 MFI
- Kd [9]: 3.05 nM
- specific binding MFI (human TIM-3 on cells [10]): 595 MFI
- specific binding MFI (human TIM-3 on cells [11]): 480 MFI
- EC50 (Tim3-ECD-His-Biotin): 1.32 µg/mL
- MFI [12]: 71 MFI
- specific binding MFI (human TIM-3 on cells [13]): 328 MFI

B3: 5D9 IgG (antibody, V domains shown)
VH: QVQLVQSGAEVKKPGASVKVSCKASGYTFTSYYMHWVRQAPGQGLEWMGIINPSGGSTSYAQKFQGRVTMTRDTSTSTVYMELSSLRSEDTAVYYCARSYIDMDYWGQGTLVTVSS
VL: EIVLTQSPGTLSLSPGERATLSCRASQSVSSSYLAWYQQKPGQAPRLLIYGASSRATGIPDRFSGSGSGTDFTLTISRLEPEDFAVYYCQQDNWSPTFGQGTKVEIK
notes: human IgG1
- binding result [14]: binds
- binding result [15]: no binding (tested: 500 nM)

B4: 11F8 IgG (antibody, V domains shown)
VH: QVQLVQSGAEVKKPGSSVKVSCKASGGTFSSYAISWVRQAPGQGLEWMGGIIPIFGTANYAQKFQGRVTITADKSTSTAYMELSSLRSEDTAVYYCARAVFYRAWYSFDYWGQGTTVTVSS
VL: DIQMTQSPSTLSASVGDRVTITCRASQSISSWLAWYQQKPGKAPKLLIYDASSLESGVPSRFSGSGSGTEFTLTISSLQPDDFATYYCQQYTSPPPTFGQGTKVEIK
notes: human IgG1
- binding result [14]: binds

B5: Farletuzumab (antibody, V domains shown)
VH: EVQLVESGGGVVQPGRSLRLSCSASGFTFSGYGLSWVRQAPGKGLEWVAMISSGGSYTYYADSVKGRFAISRDNAKNTLFLQMDSLRPEDTGVYFCARHGDDPAWFAYWGQGTPVTVSS
VL: DIQLTQSPSSLSASVGDRVTITCSVSSSISSNNLHWYQQKPGKAPKPWIYGTSNLASGVPSRFSGSGSGTDYTFTISSLQPEDIATYYCQQWSSYPYMYTFGQGTKVEIKR
- Kd [16]: 0.65 nM
- Kd [17]: 67.3 nM

B6: Tim3_0022 (antibody, V domains shown)
VH: EVQLQESGPSLVKPSQTLSLTCSVTGDSIASAYWNWIRKFPGNKLEYMGYINYSGSTYYNPSLKSRISITRDTSQNQYYLQLNSVTTEDTATYYCVTGDYFDYWGRGTTLTVSS
VL: DIQMTQSPSSLSAYLGGKVTITCKARQDVRKNIGWYQHKPGKGPRLLIWYTSTLQSGIPSRFSGSGSGRDYSFNINNLEPEDIATYYCLQYDNLPFTFGTGTKLEIR
- MFI [2]: 138 MFI
- MFI [7]: 134 MFI
- Kd (monomeric human Tim3-ECD [8]): 126 nM
- Kd (monomeric cyno Tim3-ECD): 28.4 nM
- specific binding MFI (human TIM-3 on cells [10]): 1240 MFI
- specific binding MFI (human TIM-3 on cells [11]): 1470 MFI
- MFI [12]: 115 MFI
- specific binding MFI (human TIM-3 on cells [13]): 1110 MFI
